# In PMC6934326, “A kinase-dependent checkpoint prevents escape of immature ribosomes into the translating pool” (PLoS Biology, 2019):
# T1: maltose-binding protein (MBP)-Rio1 (Saccharomyces cerevisiae (strain ATCC …, UniProt Q12196))
# T1 chain: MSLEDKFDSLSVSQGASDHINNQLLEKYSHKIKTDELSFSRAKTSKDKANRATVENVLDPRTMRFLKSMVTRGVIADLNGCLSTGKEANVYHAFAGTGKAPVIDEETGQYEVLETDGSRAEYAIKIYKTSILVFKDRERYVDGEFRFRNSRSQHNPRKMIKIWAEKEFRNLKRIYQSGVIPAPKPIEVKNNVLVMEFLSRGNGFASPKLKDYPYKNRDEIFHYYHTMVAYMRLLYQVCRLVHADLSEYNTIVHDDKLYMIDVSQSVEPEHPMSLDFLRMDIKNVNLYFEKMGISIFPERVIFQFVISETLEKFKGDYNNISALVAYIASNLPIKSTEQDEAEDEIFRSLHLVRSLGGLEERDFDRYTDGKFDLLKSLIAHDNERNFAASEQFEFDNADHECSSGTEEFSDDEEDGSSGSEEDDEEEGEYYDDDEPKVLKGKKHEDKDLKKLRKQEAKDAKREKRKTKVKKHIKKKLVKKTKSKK
# T2: MBP-Nob1 (Saccharomyces cerevisiae (strain ATCC …, UniProt Q08444))
# T2 chain: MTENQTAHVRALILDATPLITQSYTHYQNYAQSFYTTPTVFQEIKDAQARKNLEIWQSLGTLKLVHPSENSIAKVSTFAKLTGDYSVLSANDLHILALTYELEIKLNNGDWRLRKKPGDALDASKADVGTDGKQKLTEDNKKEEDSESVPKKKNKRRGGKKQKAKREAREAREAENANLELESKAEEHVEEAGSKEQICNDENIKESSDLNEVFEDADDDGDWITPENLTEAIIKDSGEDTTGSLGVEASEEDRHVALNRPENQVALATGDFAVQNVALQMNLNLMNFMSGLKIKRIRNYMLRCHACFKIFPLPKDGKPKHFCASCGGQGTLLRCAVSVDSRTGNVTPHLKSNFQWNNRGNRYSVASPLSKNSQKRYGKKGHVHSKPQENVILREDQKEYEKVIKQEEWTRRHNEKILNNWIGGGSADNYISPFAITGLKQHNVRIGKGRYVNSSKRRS
# T3: MBP-Pno1 (Saccharomyces cerevisiae (strain ATCC …, UniProt Q99216))
# T3 chain: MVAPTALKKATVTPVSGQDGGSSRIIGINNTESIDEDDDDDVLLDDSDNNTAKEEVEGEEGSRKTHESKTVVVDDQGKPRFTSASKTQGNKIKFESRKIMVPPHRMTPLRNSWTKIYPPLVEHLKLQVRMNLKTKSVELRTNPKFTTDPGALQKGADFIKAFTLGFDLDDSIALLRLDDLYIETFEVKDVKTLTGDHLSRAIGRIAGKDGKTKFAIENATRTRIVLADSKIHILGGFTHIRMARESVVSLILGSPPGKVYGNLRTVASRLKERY
# T4: Nob1–Pno1 complex (S. cerevisiae, UniProt Q08444 1-459; Q99216 1-274)
# T4 construct: Nob1, S. cerevisiae, untagged, as m2; Pno1, S. cerevisiae, untagged, as m3; The two proteins were added together with MBP-Rio1 and preincubated; the complex was not isolated beforehand; also called Nob1 and Pno1
# T4 sequence (looked up) 1: T2 chain
# T4 sequence (looked up) 2: T3 chain
# B1: Nob1 (protein)
# chain: T2 chain
# B2: Pno1 (protein)
# chain: T3 chain
# B3: maltose-binding protein (MBP)-Rio1 (enzyme, S. cerevisiae, UniProt Q12196 1-484, looked up)
# chain: T1 chain
# notes: Rio1, aspartate kinase, S. cerevisiae; cloned into pSV272 as a TEV-cleavable His6-MBP fusion; The tag was not cut off for this form; also called His-MBP-tagged Rio1; His6-MBP fusion protein; source: E. coli Rosetta DE3, purified (Ni-NTA, MonoQ, Superdex200)
# Experiments:
# Nob1 = experiment: EMSA; settings: 40 mM HEPES pH 7.6, 50 mM KCl, 10 mM MgCl2, 10 min at 30 C; trace 32P RNA prefolded at 65 C in 40 mM HEPES pH 7.6, 100 mM KCl, 2 mM MgCl2; 6% acrylamide/THEM …
# [1] = target: T1, maltose-binding protein (MBP)-Rio1; experiment: MBP pull-down (amylose resin), Coomassie SDS-PAGE; tested with AMPPNP; Rio1 binds only when Nob1 and Pno1 are both present (with AMPPNP, little to none with ADP)
# MBP-Nob1 = target: T2, MBP-Nob1; experiment: MBP pull-down (amylose resin), Coomassie SDS-PAGE; tested with AMPPNP; Rio1 binding requires Pno1 as well as Nob1
# MBP-Pno1 = target: T3, MBP-Pno1; experiment: MBP pull-down (amylose resin), Coomassie SDS-PAGE; tested with AMPPNP; Rio1 binding requires Nob1 as well as Pno1
# Nob1–Pno1 complex = target: T4, Nob1–Pno1 complex; experiment: pull-down; 7 μM MBP-tagged protein held on amylose resin, 20 μM untagged protein; 50 mM HEPES pH 7.5, 200 mM NaCl, 5 mM MgCl2, 2 mM AMPPNP; 4 °C; eluted with 50 mM maltose; Coomassie-stained SDS-PAGE; settings: both partners purified
molecule,measurement,setting,value
D-A2 (3'-ITS1 product),Kd,Nob1,960 nM
B1,binding result,[1],no binding
B2,binding result,[1],no binding
B3,binding result,MBP-Nob1,no binding
same,binding result,MBP-Pno1,no binding
same,binding result,Nob1–Pno1 complex,binds
